± gives the uncertainty stated by the source.
Test: self-splicing fitness, log relative to wild type (ln ratio); higher = more splicing; Tetrahymena group I intron in knt gene, E. coli kanamycin selection, DiMSum; sequences stand for … in CUCUCU…GGAGGGAAAAGUUAUCAGGCAUGCACCUGGUAGCUAGUCUUUAAACCAAUAGAUUGCAUCGGUUUAAAAGGCAAGACCGUCAAAUUGCGGGAAAGGGGUCAACAGCCGUUCAGUACCAAGUCUCAGGGGAAACUUUGAGAUGGCCUUGCAAAGGGUAUGGUAAUAAGCUGACGGACAUGGUCCUAACCACGCAGCCAAGUCCUAAGUCAACAGAUCUUCUGUUGAUAUGGAUGCAGUUCACAGACUAAAUGUCGGUCGGGGAAGAUGUAUUCUUCUCAUAAGAUAUAGUCGGACCUCUCCUUAAUGGGAGCUAGCGGAUGAAGUGAUGCAACACUGGAGCCGCUGGGAACUAAUUUGUAUGCGAAAGUAUAUUGAUUAGUUUUGGAGUACUCGUGGUCG
How it was run: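 Fitness was computed with DiMSum as the error-weighted combination of replicate fold changes, kanamycin versus none, each normalised to wild type. The library randomised all eight intron nucleotides of the P1ex region, with the intron placed in the knt kanamycin-resistance gene on pET-22b(+) in E. coli BL21(DE3). Six replicate transformations were grown overnight at 37°C or 30°C on LB agar with or without 25 μg/mL kanamycin, plus 100 μg/mL carbenicillin, 50 μM IPTG and 0.2% rhamnose. Pooled colonies were amplicon-sequenced on an Illumina HiSeq 2500.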

Sequence | self-splicing fitness (ln) (30 °C) | self-splicing fitness (ln) (37 °C)
UCGGAGCAAUAUUACGGGAU | -3.48 ± 0.25 | -2.81 ± 0.38
AUGGAGCAAUAUUACGAUAA | -2.21 ± 0.26 | 
GUCGAGCAAUAUUACGCAAG | -3.6 ± 0.27 | -2.71 ± 0.3
GUGUAGCAAUAUUACGGCAG |  | -0.824 ± 0.23
GAACAGCAAUAUUACGGUAC | -1.37 ± 0.064 | -0.573 ± 0.072
AUGCAGCAAUAUUACGGUAU | -4.16 ± 0.27 | -1.42 ± 0.14
GCCGAGCAAUAUUACGGUUC | -4.42 ± 0.3 | -1.79 ± 0.26
GAUAAGCAAUAUUACGCACU | -1.21 ± 0.16 | -0.284 ± 0.2
CUAAAGCAAUAUUACGAGUC | -4.51 ± 0.3 | -2.96 ± 0.31
UGCUAGCAAUAUUACGUUUA | -3.11 ± 0.19 | -1.27 ± 0.12
GUCCAGCAAUAUUACGCCGA | -1.78 ± 0.22 | -2.03 ± 0.14
CAUGAGCAAUAUUACGGAGG | -3 ± 0.14 | -2.16 ± 0.18
CGAUAGCAAUAUUACGAAAU | -3.36 ± 0.28 | -2.5 ± 0.33
UUAUAGCAAUAUUACGUGUG | -1.63 ± 0.083 | -0.419 ± 0.098
AGCGAGCAAUAUUACGUUAC | -3.84 ± 0.21 | -2.26 ± 0.23
GCGGAGCAAUAUUACGAACC | -1.32 ± 0.35 | 
UACAAGCAAUAUUACGCUCC | -2.38 ± 0.17 | -0.668 ± 0.17
ACACAGCAAUAUUACGGCCG | -0.675 ± 0.095 | -0.395 ± 0.12
UUGCAGCAAUAUUACGGGAU | -3.42 ± 0.17 | -1.68 ± 0.12
GAUUAGCAAUAUUACGUGAC | -2.89 ± 0.12 | -0.588 ± 0.094
ACAGAGCAAUAUUACGUUUA | -3.01 ± 0.15 | -3.24 ± 0.23
UCUUAGCAAUAUUACGAUGG | -0.765 ± 0.15 | 0.551 ± 0.15
AGAGAGCAAUAUUACGGAGA |  | -2.11 ± 0.37
GCGUAGCAAUAUUACGGUCG | -0.963 ± 0.16 | -1.07 ± 0.27
CAGUAGCAAUAUUACGUAAC |  | -0.919 ± 0.33
ACCUAGCAAUAUUACGAGCG | -1.06 ± 0.085 | -0.509 ± 0.097
CUUCAGCAAUAUUACGGUGC | -3.36 ± 0.21 | -1.56 ± 0.31

Sequence | self-splicing fitness (ln) (30 °C) | self-splicing fitness (ln) (37 °C)
AAUCAGCAAUAUUACGGGUU | -2.48 ± 0.12 | -2.02 ± 0.13
AUAAAGCAAUAUUACGGCAA | 0.284 ± 0.085 | -0.0372 ± 0.11
GGCGAGCAAUAUUACGCUGU | -2.63 ± 0.22 | -2.66 ± 0.27
UUCCAGCAAUAUUACGGGCA | -0.578 ± 0.067 | 0.454 ± 0.089
UAAUAGCAAUAUUACGCGUG | -1.37 ± 0.1 | -0.125 ± 0.12
UAUCAGCAAUAUUACGACGA | -0.537 ± 0.1 | -0.425 ± 0.11
ACAUAGCAAUAUUACGUGAU | -1.7 ± 0.061 | -1.2 ± 0.088
CAGAAGCAAUAUUACGUAAA | -4.01 ± 0.31 | -1.73 ± 0.16
GGGAAGCAAUAUUACGACGA | -0.787 ± 0.093 | 0.0557 ± 0.11
CUCGAGCAAUAUUACGUCUG | -2.84 ± 0.19 | -1.2 ± 0.18
UCCAAGCAAUAUUACGCCCG | -2.32 ± 0.26 | 
GAGUAGCAAUAUUACGGCUA | -1.11 ± 0.29 | -1.37 ± 0.31
GCGCAGCAAUAUUACGACGA | 0.345 ± 0.15 | -0.247 ± 0.17
GCGCAGCAAUAUUACGAGAA | -2.67 ± 0.21 | -0.894 ± 0.21
ACGUAGCAAUAUUACGGAGA | -3.36 ± 0.44 | -2.08 ± 0.24
CGGUAGCAAUAUUACGCGUG | -2.11 ± 0.15 | -1.82 ± 0.14
GGUCAGCAAUAUUACGGAGC | -1.4 ± 0.18 | -0.82 ± 0.14
CAGGAGCAAUAUUACGUCGU |  | -1.97 ± 0.37
UCAAAGCAAUAUUACGCGAA | -1.88 ± 0.11 | -0.986 ± 0.12
CUAUAGCAAUAUUACGGUCG | 0.227 ± 0.073 | 0.586 ± 0.11
UUUCAGCAAUAUUACGUCAA | -1.19 ± 0.1 | -0.056 ± 0.097
UUGCAGCAAUAUUACGUAGU | -3.7 ± 0.22 | -2.51 ± 0.28
AGUGAGCAAUAUUACGAAAA | -3.16 ± 0.16 | -2.23 ± 0.23
CCUCAGCAAUAUUACGUGGU | -3.93 ± 0.11 | -2.5 ± 0.13
GUUGAGCAAUAUUACGCUAA | -2.15 ± 0.27 | -2.26 ± 0.26
GUGGAGCAAUAUUACGCCUA | -3 ± 0.29 | -1.96 ± 0.2
AUGUAGCAAUAUUACGAUAU | -0.909 ± 0.11 | 0.222 ± 0.14

Sequence | self-splicing fitness (ln) (30 °C) | self-splicing fitness (ln) (37 °C)
CGCGAGCAAUAUUACGUCGA | -4.28 ± 0.46 | -2.73 ± 0.24
ACUGAGCAAUAUUACGUUCA | -3.87 ± 0.28 | -1.55 ± 0.2
CAGCAGCAAUAUUACGUGGU | -3.99 ± 0.19 | -2.93 ± 0.18
AUCCAGCAAUAUUACGCGAC | -2.56 ± 0.14 | -1.86 ± 0.18
CUAGAGCAAUAUUACGUUUU | -3.96 ± 0.2 | -3.8 ± 0.25
GCUUAGCAAUAUUACGCGUC | -0.947 ± 0.13 | -0.88 ± 0.13
CAGGAGCAAUAUUACGACCU | -1.36 ± 0.13 | -0.563 ± 0.17
AUAGAGCAAUAUUACGCCCA | -1.09 ± 0.29 | -1.03 ± 0.48
GCCCAGCAAUAUUACGGACA | -0.873 ± 0.12 | -0.931 ± 0.13
GACAAGCAAUAUUACGGGUU | -3.38 ± 0.14 | -3.46 ± 0.17
UUGCAGCAAUAUUACGAUGA | -0.402 ± 0.097 | 0.367 ± 0.12
UAUGAGCAAUAUUACGAAAG | -2.55 ± 0.39 | 
AGCAAGCAAUAUUACGCCUA | -0.835 ± 0.08 | -0.537 ± 0.084
CCAAAGCAAUAUUACGUACA | -3.73 ± 0.23 | -3.32 ± 0.28
CCAGAGCAAUAUUACGAAAG | -2.45 ± 0.2 | -1.47 ± 0.17
CCCAAGCAAUAUUACGAAUG | -3.88 ± 0.22 | -2.8 ± 0.18
CUAGAGCAAUAUUACGUUAG | -1.27 ± 0.066 | -0.217 ± 0.096
CGGUAGCAAUAUUACGGGGA | -2.53 ± 0.24 | -3.03 ± 0.47
ACCUAGCAAUAUUACGAAGG | -2.16 ± 0.086 | -1.85 ± 0.15
CUGAAGCAAUAUUACGGACA | -1.79 ± 0.14 | -2.22 ± 0.27
AUGGAGCAAUAUUACGGACU | -1.2 ± 0.18 | -0.626 ± 0.23
GCGAAGCAAUAUUACGAUAC | -1.99 ± 0.17 | -0.487 ± 0.15
GGCUAGCAAUAUUACGUCAG | -2.81 ± 0.45 | 
UCAAAGCAAUAUUACGAAUG | -1.71 ± 0.11 | -1.67 ± 0.25
GGAGAGCAAUAUUACGACAU | -2.642 ± 0.022 | -1.55 ± 0.037

Source: the supplement of paper PMC7877785
